The target of assay [1] is antibody captured on the human Fab capture surface (unnamed IgG). Nature of the assay: SPR (BIAcore), antibody captured via human Fab capture kit, 50 nM receptor injected, 25 C. On the technique in general: In SPR one partner is held on a chip, and binding of the other changes the refractive index at the surface.
The target is the same in assay [2]. Nature of the assay: SPR (BIAcore), antibody captured via human Fab capture kit, 50 nM fusion polypeptide injected, 25 C.

Bounds are passed on as bounds.

The results in this text go back to US20150140683A1.

“FcgammaRIIIaV158 (intact HisAvi-tag comprising functional variant of FcgRIIIa) (receptor)”: in assay [1], the response units turned out to be 40 RU. “FcgammaRIIIaV158-Avi-IgA Protease-Fc LALA P329G fusion polypeptide (Fc fusion)” yielded a response units in assay [2] of more than 100 RU.
